This series deals with recombinant IL-8 (UniProt P10145).
Sequence of recombinant IL-8 (P10145 28-99): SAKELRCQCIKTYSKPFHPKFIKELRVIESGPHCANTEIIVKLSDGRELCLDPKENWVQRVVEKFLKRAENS

For the substance “SpyCEP in cell-free GAS culture supernatants”, the “IL-8 degradation (uncleaved IL-8 by ELISA)” value is listed as “the IL-8 degrading activity of SpyCEP”.

For the origin of these results see patent US20170037087.
